# Measured values taken from patent US20240182536A1 (MURAL ONCOLOGY, published 2024).
# Substitutions are numbered along the chain they refer to. Names may count otherwise. Read-outs that look alike come from different tables or passages of the source.
# B1: IL-18 variant G3T, E6K, K53A (ligand)
# chain: YFTKLKSKLSVIRNLNDQVLFIDQGNRPLFEDMTDSDMRDNAPRTIFIISMYADSQPRGMAVTISVKSEKISTLSSENKIISFKEMNPPDNIKDTKSDIIFFQRSVPGHDNKMQFESSSYEGYFLASEKERDLFKLILKKEDELGDRSIMFTVQNED
# notes: also called G3T, K53A, E6K
# B2: IL-18 variant G3T, K53S (ligand)
# chain: B1 chain with K6E, A53S
# B3: IL-18 variant G3V, E6K, K53A (ligand)
# chain: B1 chain with T3V
# notes: also called G3V, K53A, E6K
# B4: IL-18 variant G3N, E6Y, K53Q, D54W, S55R, N91T, R104P (ligand)
# chain: B1 chain with T3N, K6Y, A53Q, D54W, S55R, N91T, R104P
# B5: IL-18 variant G3E, E6A, K53Q, D54W, S55V, T63M, N91M, R104N (ligand)
# chain: B1 chain with T3E, K6A, A53Q, D54W, S55V, T63M, N91M, R104N
# B6: IL-18 variant K53S, S55K (ligand)
# chain: B1 chain with T3G, K6E, A53S, S55K
# B7: IL-18 variant K53S, S55G (ligand)
# chain: B1 chain with T3G, K6E, A53S, S55G
# B8: IL-18 variant K53T, S55P (ligand)
# chain: B1 chain with T3G, K6E, A53T, S55P
# B9: IL-18 variant K53S, S55Y (ligand)
# chain: B1 chain with T3G, K6E, A53S, S55Y
# B10: IL-18 variant K53T, S55A (ligand)
# chain: B1 chain with T3G, K6E, A53T, S55A
# B11: IL-18 variant K53H, S55V (ligand)
# chain: B1 chain with T3G, K6E, A53H, S55V
# Columns and labels:
# [1] = target: T1, human IL-18 binding protein (IL-18BP) (human, UniProt O95998 31-194); assay: Octet BLI
# T1 construct: also called hu IL-18BP; hIL18BP
# T1 sequence (looked up): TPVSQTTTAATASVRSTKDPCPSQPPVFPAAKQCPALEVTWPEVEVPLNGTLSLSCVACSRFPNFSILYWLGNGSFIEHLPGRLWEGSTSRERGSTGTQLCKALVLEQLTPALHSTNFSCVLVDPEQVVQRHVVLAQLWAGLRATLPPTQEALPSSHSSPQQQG
# Method: (§1) Octet 96red instrument was used to determine affinities of IL18 proteins to BP or receptors. 5-10 ug/ml analyte proteins were used for loading on Sartorius tips (AHC or SA). […] 120-180 s loading, 200 s association and 800 s dissociation were used for kinetics. 3-7 data points were used to calculate affinities.
# [2] = target: T2, human IL-18R alpha/beta pair (IL-18Rab) (human, UniProt Q13478 19-329; O95256 20-356); assay: Octet BLI
# T2 construct: also called hu IL-18Rab
# T2 sequence (looked up) 1: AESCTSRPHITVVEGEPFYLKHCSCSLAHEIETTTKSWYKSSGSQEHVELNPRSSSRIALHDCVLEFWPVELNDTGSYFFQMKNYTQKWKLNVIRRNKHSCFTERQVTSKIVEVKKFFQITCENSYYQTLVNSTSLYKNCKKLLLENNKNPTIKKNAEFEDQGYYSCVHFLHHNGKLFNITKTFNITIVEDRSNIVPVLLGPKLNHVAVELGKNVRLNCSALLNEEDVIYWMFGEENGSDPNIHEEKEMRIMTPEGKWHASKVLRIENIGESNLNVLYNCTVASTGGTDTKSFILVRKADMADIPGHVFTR
# T2 sequence (looked up) 2: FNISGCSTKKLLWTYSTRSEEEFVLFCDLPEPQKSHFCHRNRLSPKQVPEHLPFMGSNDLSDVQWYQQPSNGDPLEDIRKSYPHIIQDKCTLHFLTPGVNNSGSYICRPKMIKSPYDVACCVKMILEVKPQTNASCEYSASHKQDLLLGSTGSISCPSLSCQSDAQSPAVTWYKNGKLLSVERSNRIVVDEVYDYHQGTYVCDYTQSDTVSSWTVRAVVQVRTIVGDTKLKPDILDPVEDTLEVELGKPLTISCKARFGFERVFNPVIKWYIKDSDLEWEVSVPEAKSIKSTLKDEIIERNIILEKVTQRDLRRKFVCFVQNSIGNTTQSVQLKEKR
# Method: as §1
# [3] = target: T3, human IL-18 receptor alpha (IL-18Rα) (human, UniProt Q13478 19-329, limits assumed); assay: Octet BLI
# T3 construct: also called hu IL-18Ra; IL-18R alpha
# T3 sequence (looked up): T2 sequence (looked up) 1
# Method: as §1
# [4] = target: T1, human IL-18 binding protein (IL-18BP); assay: cell-based or functional assay
# [5] = target: T4, IL-18 receptors on HEK-Blue IL-18 reporter cells (InvivoGen) (UniProt Q13478 19-541; O95256 20-599); assay: cell-based or functional assay
# T4 sequence (looked up) 1: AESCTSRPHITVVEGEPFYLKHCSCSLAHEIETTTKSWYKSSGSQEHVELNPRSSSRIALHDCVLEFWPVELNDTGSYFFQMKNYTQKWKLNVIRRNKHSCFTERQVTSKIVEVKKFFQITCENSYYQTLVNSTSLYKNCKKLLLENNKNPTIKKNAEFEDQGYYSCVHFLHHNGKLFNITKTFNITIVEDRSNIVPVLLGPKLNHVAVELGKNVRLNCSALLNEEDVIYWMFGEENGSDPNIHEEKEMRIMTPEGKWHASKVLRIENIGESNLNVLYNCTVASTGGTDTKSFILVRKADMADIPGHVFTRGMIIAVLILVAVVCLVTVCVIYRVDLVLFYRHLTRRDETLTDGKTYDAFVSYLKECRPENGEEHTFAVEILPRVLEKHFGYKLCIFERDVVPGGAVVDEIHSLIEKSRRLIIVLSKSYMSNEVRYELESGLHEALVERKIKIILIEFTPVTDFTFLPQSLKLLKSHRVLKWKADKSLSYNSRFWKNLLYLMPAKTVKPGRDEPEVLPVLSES
# T4 sequence (looked up) 2: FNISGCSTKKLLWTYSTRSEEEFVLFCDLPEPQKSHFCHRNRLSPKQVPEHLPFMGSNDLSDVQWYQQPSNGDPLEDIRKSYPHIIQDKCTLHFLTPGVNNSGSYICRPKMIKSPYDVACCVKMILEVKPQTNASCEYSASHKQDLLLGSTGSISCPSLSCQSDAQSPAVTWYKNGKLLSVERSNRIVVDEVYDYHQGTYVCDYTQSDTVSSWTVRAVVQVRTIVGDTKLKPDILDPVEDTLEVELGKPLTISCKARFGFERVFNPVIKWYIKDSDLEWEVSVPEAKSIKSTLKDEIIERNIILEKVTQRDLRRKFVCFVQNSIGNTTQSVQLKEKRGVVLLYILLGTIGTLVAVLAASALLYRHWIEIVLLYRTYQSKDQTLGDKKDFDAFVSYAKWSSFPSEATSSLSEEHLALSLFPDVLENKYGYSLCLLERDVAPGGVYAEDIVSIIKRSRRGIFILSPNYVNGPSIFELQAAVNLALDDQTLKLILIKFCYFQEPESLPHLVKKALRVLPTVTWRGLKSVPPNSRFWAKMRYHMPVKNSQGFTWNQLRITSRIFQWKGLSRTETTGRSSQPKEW
# [6] = target: T1, human IL-18 binding protein (IL-18BP); assay: cell-based or functional assay; remark: listed apart in the source
# [7] = target: T4, IL-18 receptors on HEK-Blue IL-18 …; assay: cell-based or functional assay; remark: listed apart in the source
# [8] = target: T1, human IL-18 binding protein (IL-18BP); assay: Octet BLI; remark: listed apart in the source
# Method: as §1
# Select G3/K53-substitution containing IL-18 variants and select G3/K53/N91-substitution containing TL-18 variants were tested for activity in the HEK-blue activity assay and for binding affinity to IL-18BP. As shown in the data of Table 15 and Table 16 below, each variant had similar or better activity than WT IL-18, and retained substantial activity in the presence of IL-18BP.
# [9] = target: T5, IL-18 receptor (IL-18Rα and IL-18Rβ) (UniProt Q13478 19-541; O95256 20-599, limits assumed); assay: cell-based or functional assay
# T5 sequence (looked up) 1: T4 sequence (looked up) 1
# T5 sequence (looked up) 2: T4 sequence (looked up) 2
# [10] = target: T1, human IL-18 binding protein (IL-18BP); assay: cell-based or functional assay; remark: listed apart in the source
# [11] = target: T4, IL-18 receptors on HEK-Blue IL-18 …; assay: cell-based or functional assay; remark: listed apart in the source
# [12] = target: T6, interleukin 18 binding protein (IL-18BP) (UniProt O95998 31-194); assay: cell-based or functional assay
# T6 sequence (looked up): T1 sequence (looked up)
# [13] = target: T7, interleukin 18 binding protein (IL-18BP) (UniProt O95998 31-194); assay: cell-based or functional assay; remark: listed apart in the source
# T7 sequence (looked up): T1 sequence (looked up)
# [14] = target: T8, IL-18 receptors on HEK-Blue IL-18 reporter cells (UniProt Q13478 19-541; O95256 20-599, limits assumed); assay: cell-based or functional assay
# T8 sequence (looked up) 1: T4 sequence (looked up) 1
# T8 sequence (looked up) 2: T4 sequence (looked up) 2
binder,measurement,setting,value
B1,Kd,[1],6 nM
same,Kd,[2],0.32 nM
same,Kd,[3],10 nM
same,"HEK-Blue Activity Assay Ec50 (pM), +300 nM hu IL-18BP",[4],1.49 pM
same,"HEK-Blue Activity Assay Ec50 (pM), -hu IL-18BP",[5],0.04 pM
same,"Fold Change (BP/NO BP), 50 nM BP",[6],2.79 fold
same,"Fold Change (BP/NO BP), 300 nM BP",[6],35.2 fold
same,"HEK-Blue EC50 pM, +50 nM BP",[6],0.14 pM
same,HEK-blue EC50 (pM) + 300 nM BP,[6],1.49 pM
same,"HEK-Blue EC50 pM, NO BP (50 nM BP run)",[7],0.05 pM
same,"HEK-Blue EC50 pM, NO BP (300 nM BP run)",[7],0.04 pM
B2,Kd,[8],18 nM
same,koff,[8],0.00474 s⁻¹
same,kon,[8],263000 M⁻¹ s⁻¹
same,"EC50 pM, IFN gamma expression in PBMCs",[9],368 pM
same,"HEK-Blue Ec50 (pM), +IL-18BP (50 nM)",[10],5.18 pM
same,"HEK-Blue Ec50 (pM), -IL-18BP",[11],2.5 pM
B3,Kd,[1],19 nM
same,Kd,[2],0.27 nM
same,Kd,[3],52 nM
same,"HEK-Blue Activity Assay Ec50 (pM), +300 nM hu IL-18BP",[4],1.71 pM
same,"HEK-Blue Activity Assay Ec50 (pM), -hu IL-18BP",[5],0.02 pM
same,"Fold Change (BP/NO BP), 50 nM BP",[6],8.67 fold
same,"Fold Change (BP/NO BP), 300 nM BP",[6],74.8 fold
same,"HEK-Blue EC50 pM, +50 nM BP",[6],0.33 pM
same,HEK-blue EC50 (pM) + 300 nM BP,[6],1.71 pM
same,"HEK-Blue EC50 pM, NO BP (50 nM BP run)",[7],0.04 pM
same,"HEK-Blue EC50 pM, NO BP (300 nM BP run)",[7],0.02 pM
B4,"Ratio (-BP/+BP), DF-1000005",[12],1.02
same,"Ratio (-BP/+BP), DF-5000006",[12],0.93
same,"Ratio (-BP/+BP), DF-25000007",[12],1.03
B5,"Ratio (-BP/+BP), DF-1000005",[12],0.97
same,"Ratio (-BP/+BP), DF-5000006",[12],1.03
same,"Ratio (-BP/+BP), DF-25000007",[12],0.99
B6,HEK-blue EC50 (pM) + 300 nM BP,[13],18.1 pM
same,Ratio,[13],0.8
same,HEK-blue EC50 (pM) - BP,[14],21.8 pM
B7,HEK-blue EC50 (pM) + 300 nM BP,[13],103 pM
same,Ratio,[13],3.1
same,HEK-blue EC50 (pM) - BP,[14],33.4 pM
B8,HEK-blue EC50 (pM) + 300 nM BP,[13],133 pM
same,Ratio,[13],1.3
same,HEK-blue EC50 (pM) - BP,[14],103 pM
B9,HEK-blue EC50 (pM) + 300 nM BP,[13],136 pM
same,Ratio,[13],1.9
same,HEK-blue EC50 (pM) - BP,[14],70 pM
B10,HEK-blue EC50 (pM) + 300 nM BP,[13],140 pM
same,Ratio,[13],2.1
same,HEK-blue EC50 (pM) - BP,[14],67.4 pM
B11,HEK-blue EC50 (pM) + 300 nM BP,[13],> 200 pM
same,Ratio,[13],10.1
same,HEK-blue EC50 (pM) - BP,[14],45.5 pM
